# In patent US6861234B1, “Method of epitope discovery” (MannKind Corporation, priority 2000, dated 2005):
# Target: HLA-A2.1 (Homo sapiens, UniProt P04439, D140Y/D185E/D98H/E176V/E277Q/G131W/G231S/I119V/I121R/I166T/I218V/L300P/L318F/N151K/N90K/P208A/P217A/Q86G/Q94H/R138H/R169H/T345S)
# Test: T2 cell HLA-A2.1 stabilisation (peptide binding) assay by flow cytometry, method of Stauss et al.
# Format: cell-based
# Conditions: T2 cells, β2 microglobulin 5 μg/ml, peptides at 100, 10, 1 and 0.1 μg/ml, 4 hours 37° C., W6/32 + FITC anti-mouse IgG, FACScan; FIG. 3
# Source text: The epitope is synthesized and tested for its ability to bind a MHC receptor. For example, in one preferred assay, cells displaying the MHC I receptor can be used to measure the binding affinity of candidate peptides labeled with a radionuclide. Another preferred approach measures the ability of a peptide to bind to an MHC I receptor using a cell culture-based assay. In this assay, cells lacking transporters associated with antigen processing (TAP) are used to determine whether or not a candidate peptide has the ability to bind to the MHC I receptor. […] When the cell is flooded with exogenous peptide that can bind to the MHC I cleft, expression of the receptor is restored. This can be monitored by several means such as RIA, FACS, and the like. Using TAP^− cells, one of skill in the art can screen large numbers of potential candidate peptides for receptor binding without having to perform detailed binding affinity analysis.
# Binding of a candidate epitope to HLA-A2.1 was assayed according to the method of Stauss et al., (Proc Natl Acad Sci USA 89(17):7871-5 (1992)). […] Peptides were added at 100, 10, 1 and 0.1 μg/ml. The plate was rocked gently for 2 minutes and then incubated for 4 hours in a 5% CO2 incubator at 37° C. After the unbound peptide was removed by washing twice with IMDM, a saturating amount of monoclonal antibody W6/32 (Sigma) was added. […]
sequence,measurement,value
FLPWHRLFLL (Homo sapien) [tyrosinase 207-216],"binding to HLA-A2.1 (surface HLA-A2.1 molecules stabilized by peptide binding, fluorescence)",bind HLA-A2.1 to a similar extent as the known A2.1 binder FLPSDYFPSV
